# Assays:
# COUP (LBD of COUP-TFI) = molecular target: T1, COUP (LBD of COUP-TFI) (Homo sapiens, UniProt P10589); assay: Yeast two-hybrid interaction with COUP-TFI; type: binding; details: β-galactosidase ONPG assay
# T1 construct: COUP (LBD of COUP-TFI); expressed in transfected cells; host or cells: Saccharomyces cerevisiae Y190
# T1 sequence (P10589 184-410 limits assumed): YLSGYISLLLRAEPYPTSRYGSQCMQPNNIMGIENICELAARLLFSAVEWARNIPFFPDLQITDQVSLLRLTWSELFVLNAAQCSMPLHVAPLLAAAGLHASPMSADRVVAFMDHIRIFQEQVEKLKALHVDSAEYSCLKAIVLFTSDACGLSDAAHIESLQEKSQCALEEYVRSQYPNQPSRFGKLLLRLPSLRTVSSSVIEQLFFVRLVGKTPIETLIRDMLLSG
# Experimental: (§1) The protein—protein interactions between RAC3 and several steroid/nuclear receptors were analyzed by the yeast two-hybrid system. The original two-hybrid clone, RAC3.1 in pGAD10 vector, was retransformed together with yeast expression vectors for Gal4 DBD fusion of selected hormone receptor genes into Y190 cells. The receptors used include RAR (full-length hRARα), RXR (full-length hRXRα), VDR (LBD of human Vitamin D receptor), PPAR (LBD of mPPARα), TR (LBD) of hTRβ), COUP (LBD of COUP-TFI). Three independent colonies from each transformation were selected and analyzed for expression of […] activities by liquid ONPG assay (FIG. 6) after treatment with 1 μM of corresponding ligands (closed bars), or with equal concentration of vehicle alone (open bars). […] The ligands used in these experiments were atRA, VitD3 (1,25-dihydroxyvitamin D3), and Wy (Wy 14,642). […] In the absence of ligand, RAC3 can interact with RAR and PPAR.
# PPAR (LBD of mPPARα) = molecular target: T2, PPAR (LBD of mPPARα) (Mus musculus, UniProt P23204); assay: Yeast two-hybrid interaction with PPAR; type: binding; details: β-galactosidase ONPG assay, 1 μM ligand or vehicle
# T2 construct: PPAR (LBD of mPPARα); expressed in transfected cells; host or cells: Saccharomyces cerevisiae Y190
# T2 sequence (P23204 239-466 limits assumed): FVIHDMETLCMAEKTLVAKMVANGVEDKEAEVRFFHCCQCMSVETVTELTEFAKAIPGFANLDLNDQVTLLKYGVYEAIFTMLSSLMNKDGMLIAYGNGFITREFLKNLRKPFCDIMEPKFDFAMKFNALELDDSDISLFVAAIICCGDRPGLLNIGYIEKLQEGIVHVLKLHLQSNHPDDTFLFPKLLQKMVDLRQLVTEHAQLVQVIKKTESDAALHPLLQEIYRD
# T2 sequence (Q9Y6Q9 401-1204 E704Q partner limits assumed): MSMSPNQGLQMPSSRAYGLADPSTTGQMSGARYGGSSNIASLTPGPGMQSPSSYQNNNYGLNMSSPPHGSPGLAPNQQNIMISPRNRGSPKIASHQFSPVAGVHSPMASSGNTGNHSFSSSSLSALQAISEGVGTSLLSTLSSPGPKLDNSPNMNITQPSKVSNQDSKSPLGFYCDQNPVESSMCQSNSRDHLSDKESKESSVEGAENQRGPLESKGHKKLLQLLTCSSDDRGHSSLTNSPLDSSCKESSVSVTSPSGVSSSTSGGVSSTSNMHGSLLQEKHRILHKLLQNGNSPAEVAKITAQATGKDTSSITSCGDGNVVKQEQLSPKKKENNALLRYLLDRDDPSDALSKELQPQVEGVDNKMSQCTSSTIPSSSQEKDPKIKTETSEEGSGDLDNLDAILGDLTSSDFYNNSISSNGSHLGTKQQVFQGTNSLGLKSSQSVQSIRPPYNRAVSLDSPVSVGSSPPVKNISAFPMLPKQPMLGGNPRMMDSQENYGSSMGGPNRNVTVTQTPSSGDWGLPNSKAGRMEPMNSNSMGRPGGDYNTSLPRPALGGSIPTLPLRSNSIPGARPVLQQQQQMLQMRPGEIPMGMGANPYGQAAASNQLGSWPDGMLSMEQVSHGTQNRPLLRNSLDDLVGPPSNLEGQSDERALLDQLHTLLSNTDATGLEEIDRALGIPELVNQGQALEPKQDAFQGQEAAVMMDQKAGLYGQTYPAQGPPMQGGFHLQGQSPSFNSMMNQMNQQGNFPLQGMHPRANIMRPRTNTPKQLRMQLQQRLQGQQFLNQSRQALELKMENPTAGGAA
# Experimental: as §1
# [1] = molecular target: T3, human progesterone receptor (hPR) (Homo sapiens, UniProt P06401); assay: Coactivation of hPR on MMTV-LTR luciferase reporter in CV-1 cells; type: cell-based; details: coexpressed RAC3, 100 nM progesterone
# T3 construct: expressed in transfected cells; host or cells: CV-1 monkey kidney cells
# T3 sequence (P06401 whole entry): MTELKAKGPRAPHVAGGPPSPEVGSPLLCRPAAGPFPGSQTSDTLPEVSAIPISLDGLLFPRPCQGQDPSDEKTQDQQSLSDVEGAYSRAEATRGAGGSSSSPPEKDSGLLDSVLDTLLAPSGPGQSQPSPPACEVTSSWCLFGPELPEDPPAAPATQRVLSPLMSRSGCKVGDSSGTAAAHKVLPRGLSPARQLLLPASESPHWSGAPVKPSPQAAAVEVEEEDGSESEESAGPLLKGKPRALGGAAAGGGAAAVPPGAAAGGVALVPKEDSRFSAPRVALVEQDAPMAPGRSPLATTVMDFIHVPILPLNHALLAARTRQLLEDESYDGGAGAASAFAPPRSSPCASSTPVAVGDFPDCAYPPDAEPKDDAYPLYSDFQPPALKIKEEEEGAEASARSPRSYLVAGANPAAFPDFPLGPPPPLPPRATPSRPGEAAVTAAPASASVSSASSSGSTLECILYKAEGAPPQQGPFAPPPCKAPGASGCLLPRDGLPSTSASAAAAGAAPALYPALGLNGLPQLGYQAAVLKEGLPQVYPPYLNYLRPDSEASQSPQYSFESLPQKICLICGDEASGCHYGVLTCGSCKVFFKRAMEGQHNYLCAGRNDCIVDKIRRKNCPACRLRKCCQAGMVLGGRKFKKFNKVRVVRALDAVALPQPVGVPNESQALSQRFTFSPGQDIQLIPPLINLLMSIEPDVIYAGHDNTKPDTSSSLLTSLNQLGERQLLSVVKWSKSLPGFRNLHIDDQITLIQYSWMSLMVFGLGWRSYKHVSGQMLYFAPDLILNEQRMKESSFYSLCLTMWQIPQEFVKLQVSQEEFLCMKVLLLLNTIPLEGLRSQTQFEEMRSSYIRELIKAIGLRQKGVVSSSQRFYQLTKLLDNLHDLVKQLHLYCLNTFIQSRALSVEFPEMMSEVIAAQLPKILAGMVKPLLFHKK
# T3 sequence (Q9Y6Q9 with tags, fused parts or gaps isoform Q9Y6Q9-5 D131E/G132A/T187P/E704Q/DEL1268-1272 partner): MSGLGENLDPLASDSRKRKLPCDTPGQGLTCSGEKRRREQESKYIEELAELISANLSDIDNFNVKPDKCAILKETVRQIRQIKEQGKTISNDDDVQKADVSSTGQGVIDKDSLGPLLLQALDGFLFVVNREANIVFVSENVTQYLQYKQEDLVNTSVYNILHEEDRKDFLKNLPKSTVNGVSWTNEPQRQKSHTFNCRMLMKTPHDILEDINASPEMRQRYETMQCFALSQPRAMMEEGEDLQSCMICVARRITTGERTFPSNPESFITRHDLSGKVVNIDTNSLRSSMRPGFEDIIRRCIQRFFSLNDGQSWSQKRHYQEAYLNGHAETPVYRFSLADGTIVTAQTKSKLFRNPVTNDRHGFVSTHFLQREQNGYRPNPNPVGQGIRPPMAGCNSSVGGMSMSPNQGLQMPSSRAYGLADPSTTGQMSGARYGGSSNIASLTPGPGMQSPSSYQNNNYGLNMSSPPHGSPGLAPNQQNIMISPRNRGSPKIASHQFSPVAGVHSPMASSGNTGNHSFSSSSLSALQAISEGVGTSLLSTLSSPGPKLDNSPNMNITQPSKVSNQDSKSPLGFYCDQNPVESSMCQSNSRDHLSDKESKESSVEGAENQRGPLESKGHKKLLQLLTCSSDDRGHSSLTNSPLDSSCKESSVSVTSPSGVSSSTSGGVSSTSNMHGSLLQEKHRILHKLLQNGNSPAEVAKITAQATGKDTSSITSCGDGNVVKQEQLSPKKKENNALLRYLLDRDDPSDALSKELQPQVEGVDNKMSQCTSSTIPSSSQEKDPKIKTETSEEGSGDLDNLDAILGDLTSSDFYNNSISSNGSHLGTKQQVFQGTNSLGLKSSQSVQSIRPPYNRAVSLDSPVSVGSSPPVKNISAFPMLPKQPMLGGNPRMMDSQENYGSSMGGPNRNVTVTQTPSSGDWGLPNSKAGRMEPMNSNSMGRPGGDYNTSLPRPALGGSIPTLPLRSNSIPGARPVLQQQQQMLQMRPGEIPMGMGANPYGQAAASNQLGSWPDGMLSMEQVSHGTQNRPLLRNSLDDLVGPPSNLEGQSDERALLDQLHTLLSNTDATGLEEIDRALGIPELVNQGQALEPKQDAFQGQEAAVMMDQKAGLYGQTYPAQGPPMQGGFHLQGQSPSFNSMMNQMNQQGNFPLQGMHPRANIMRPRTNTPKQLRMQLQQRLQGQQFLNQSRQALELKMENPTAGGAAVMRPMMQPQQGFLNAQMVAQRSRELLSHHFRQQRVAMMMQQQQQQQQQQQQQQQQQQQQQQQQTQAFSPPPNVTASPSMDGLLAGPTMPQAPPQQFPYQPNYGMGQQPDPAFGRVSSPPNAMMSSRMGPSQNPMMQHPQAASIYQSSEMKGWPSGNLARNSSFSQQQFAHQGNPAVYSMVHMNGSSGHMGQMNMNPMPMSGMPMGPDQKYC
# Experimental: In this experiment, transfected cells were treated with or without 100 nM of progesterone at presence or absence of coexpressed RAC3 or SRC-1 in CV-1 cells.
# Thus, RAC3 is a bona fide transcriptional coactivator for mammalian steroid/nuclear hormone receptors.
# RAR (full-length hRARα) = molecular target: T4, RAR (full-length hRARα) (Homo sapiens, UniProt P10276); assay: Yeast two-hybrid interaction with RAR; type: binding; details: β-galactosidase ONPG assay, 1 μM ligand or vehicle
# T4 construct: RAR (full-length hRARα); expressed in transfected cells; host or cells: Saccharomyces cerevisiae Y190
# T4 sequence (P10276 1-462): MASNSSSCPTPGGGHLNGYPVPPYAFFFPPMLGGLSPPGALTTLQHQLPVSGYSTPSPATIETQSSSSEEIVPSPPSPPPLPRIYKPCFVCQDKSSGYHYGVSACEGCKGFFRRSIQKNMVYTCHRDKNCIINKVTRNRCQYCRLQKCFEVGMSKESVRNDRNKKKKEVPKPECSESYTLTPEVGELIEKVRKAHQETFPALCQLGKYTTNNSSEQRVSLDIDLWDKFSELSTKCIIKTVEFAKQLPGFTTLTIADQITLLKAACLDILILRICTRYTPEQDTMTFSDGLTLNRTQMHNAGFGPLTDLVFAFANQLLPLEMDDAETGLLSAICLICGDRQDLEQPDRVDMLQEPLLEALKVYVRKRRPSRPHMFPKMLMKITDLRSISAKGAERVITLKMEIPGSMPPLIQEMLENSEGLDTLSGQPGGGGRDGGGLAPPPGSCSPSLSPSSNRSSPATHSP
# T4 sequence (Q9Y6Q9 401-1204 E704Q partner limits assumed): T2 sequence (Q9Y6Q9 401-1204 E704Q partner limits assumed)
# Experimental: as §1
substance,measurement,setting,value
"RAC3: transcriptional coactivator of steroid/nuclear receptors, protein of about 1417 amino acids (SEQ ID NO:2); RAC3.1 is the two-hybrid clone, amino acids 401–1204",interaction with COUP-TFI,COUP (LBD of COUP-TFI),did not interact
same,interaction with PPAR,PPAR (LBD of mPPARα),ligand-dependent manner
same,transcriptional activation by PR on the MMTV-LTR promoter,[1],enhanced transcriptional activation
same,interaction with RAR,RAR (full-length hRARα),Ligand treatment enhanced these interactions

# From patent publication US7132258B1, “Nucleic acid encoding vitamin D receptor related polypeptide” (University of Massachusetts, priority 1998, dated 2006)
